The values below come from patent US20230189818A1, “RNA-BASED CONTROL OF BOTRYTIS” (priority 2021, published 2023).

Data set [1] has as its system Botrytis cinerea B05.10 isolate. Nature of the data set: Greenhouse whole plant assay (tomato 'Lanai', disease severity). Type of data set: in vivo. Conditions: final rating day (rating #3).
Data set [2] deals with B. cinerea. Description: Open-air field trial on snap bean (Example 4.3, AUDPC of % disease severity). Format: in vivo, Botrytis cinerea. The conditions noted are these: Switch 525 g ai/ha, GS349 20 and 40, GS2280 10 and 40, GS2303 10, 20 and 40, GS2297 20 g ai/ha, FIG. 9. How it is done: RNAi compositions, each containing a dsRNA comprising a trigger sequence (GS349, GS2280, GS2303, or GS2297) described herein were evaluated for ability to control botrytis on snap bean in open-air filed trials. All test samples were formulated with RO water, propylene glycol, a linear alcohol ethoxylate, a lignosulfanate, sodium citrate dihydate, a polyacrylic acid polymer, two biocide compositions, anhydrous citric acid, and an antifoam, all of which are readily commercially available. Formulation samples were tank mixed with a standard adjuvant, the non-ionic surfactant, Activator 90 0.125%v/v. Compositions were tested at concentrations of 10, g ai/ha, 20 g ai/ha, and 40 g ai/ha. Positive controls were a chemical standard, Switch 525 g ai/ha and a biological standard, Double Nickel LC 9.4 I/ha, both of which were also tank mixed with Activator 90 0.125% v/v. As above, an untreated check was used as a negative control.
Compositions were applied to snap bean plants using a small plot sprayer delivering 50 gallons of water per acre. A total of three applications were used for each sample and positive control. Disease state was evaluated beginning 8 days after the first application and ending 37 days after the third and final application. Percent Disease Severity was assessed and AUDPC was calculated in the same manner as noted in Example 4.1.

For data set [3], the system named is Botrytis. Nature of the data set: Open-air field trial on strawberry (Example 4.1, AUDPC of % disease severity). Format: in vivo, Botrytis cinerea. The conditions noted are these: GS730 100 g ai/ha, FIG. 6. As to the method:
RNAi compositions, each containing a dsRNA comprising a trigger sequence (GS349 or GS730) described herein were evaluated for ability to control botrytis on strawberry in open-air field trials. Non-formulated (dissolved in water) GS349 and GS730 were each tank mixed with water and the standard adjuvant Silwet L-77 0.1% v/v. GS349 was tested at concentrations of 25 grams of active ingredient per hectare (g ai/ha) and 50 g ai/ha and GS730 was tested at a concentration of 100 g ai/ha. Serenade ASO 85 g ai/ha, a standard biological fungicide, was used as a positive control. A second positive control group was treated with alternating applications of the chemical standards Teldor Plus 750 g ai/ha, Signum 600 g ai/ha, and Switch 500 g ai/ha. The trial also included an untreated group as a negative control.
Test compositions and positive controls were sprayed onto strawberry plants in 12 applications. Plants were observed beginning 14 days after the first application and disease progress was assessed by determining the percentage of surface area of fruit that was affected by the disease (% Disease Severity). Disease severity was plotted over the length of the trial observations and area under disease progress curve (AUDPC) was calculated in order to measure the cumulative effect of the various treatments across multiple assessments. Means were separated according to Fisher's LSD, alpha (p)≤0.05.

Setting [4] is: 8 g ai/ha, three runs, four-week-old 'Lanai' tomato plant.
The mark [5] stands for this setting: 25 g ai/ha, three runs, four-week-old 'Lanai' tomato plant.

B1: GS2303: dsRNA trigger targeting B. cinerea Bcded1 (XM_001550339.2); trigger SEQ ID NO 24, RNA 36, reverse complement 48 (nucleic acid, listed as Botrytis cinerea)
sense: GGGCUAUAUAAGCUUUCAUCUAGGUUUUCCAAGAAACGCAUUACGAUAGACAUGUUCUCCAAAAAUCUUACUGGUCCUGCUUUCAGCAUUUCCAUGGAUCAUGAAGUCCUCCACUAUGGAAGAUUUGCAAAAUAUUUUCGACAUUGCAUUUUGCUGCAUUUCGCAUUUCUAGAUAGAAAAAAAGUGGGAUUCAUAUUCUCGAUAUUUUCUUCGUUGUCUUUUAUUCACAAGACACAUGGCAAGGGAGGAUACCAUUUGAGAGCUUGAAUUGAAGGCUUUCCUCUUACUUUUUUUAUUUUUCACAUCAUCUACGAGUGGGCGUCUUUUACGAUCAAAUCGAUAUACGACAGUGGCACAAAAUAGAAUAGGCAUUUCUCUUCUUAAAAAAGAUUUAAGGGAAGAGUUGGUGCUUGUUCUCUAUAACGCUGAUGGCAUUCGGAAGUGCUCCUGUCCAUUCAGGCUGAGACUGAGACCCAAAAUGUUGGCAGGUACGGCAGAAAGAAGUCUGCUUCAUAUGAUUGAUGGAGGAAGAAAGAAAUAUGGAAUGCGAUGGAUGAGUAAUUACUUUAAAUGAAUAUGAAAA
antisense: UUUUCAUAUUCAUUUAAAGUAAUUACUCAUCCAUCGCAUUCCAUAUUUCUUUCUUCCUCCAUCAAUCAUAUGAAGCAGACUUCUUUCUGCCGUACCUGCCAACAUUUUGGGUCUCAGUCUCAGCCUGAAUGGACAGGAGCACUUCCGAAUGCCAUCAGCGUUAUAGAGAACAAGCACCAACUCUUCCCUUAAAUCUUUUUUAAGAAGAGAAAUGCCUAUUCUAUUUUGUGCCACUGUCGUAUAUCGAUUUGAUCGUAAAAGACGCCCACUCGUAGAUGAUGUGAAAAAUAAAAAAAGUAAGAGGAAAGCCUUCAAUUCAAGCUCUCAAAUGGUAUCCUCCCUUGCCAUGUGUCUUGUGAAUAAAAGACAACGAAGAAAAUAUCGAGAAUAUGAAUCCCACUUUUUUUCUAUCUAGAAAUGCGAAAUGCAGCAAAAUGCAAUGUCGAAAAUAUUUUGCAAAUCUUCCAUAGUGGAGGACUUCAUGAUCCAUGGAAAUGCUGAAAGCAGGACCAGUAAGAUUUUUGGAGAACAUGUCUAUCGUAAUGCGUUUCUUGGAAAACCUAGAUGAAAGCUUAUAUAGCCC
Regarding B1, the entries for the “% control” value in data set [1] (setting [4]) and in data set [1] (setting [5]) were 0% and 34%, respectively. In addition, the “Disease state compared to treatment with the chemical standard (AUDPC)” value in data set [2] was “no significant difference”.

B2: GS730: dsRNA trigger targeting B. cinerea Bcsec15 (XM_024692064.1); trigger SEQ ID NO 19, RNA 31, reverse complement 43 (nucleic acid, listed as Botrytis cinerea)
sense: UCAACGCAGUCUCCAAAGCUUUGGAUGAAUUCGAUAACCCGGAUGUUAUUCUGCAAACCAAGAAUGUGAUAGCAUUGUUCAUCCAAACAAUGGAGGGUUGGGGAUAUUCAGUUGCCAUAUUAGAUGCUUAUGUGCUUAAGCUUUUCUAUAGAUAUGCUGAUUUGUUAAAACGGAAAUUCAGCACAGAUUUUCAACAGAUUGUGUCUACCGAUGAAUACAUGCCUAUGCCUGUCAAUAGCGAAGAAGACUUUGAUAAAAUCAUUCAAGUCAGUUGGUAUGUUCCGGACAGACCGAAAGAAGAAUACACAUUCCCCGGUGUAUUACCAUUCUCCCAGAUGUACCCAAUGUGCUGUAUAGAUAUCAGAAAUUUCCUGAAUCGAUUCUACUUCAUAAUGGAUGAUCAUUUUCAACAGCCAAACAUUAUUGAUGAGACACUUAAGAAGUCGAUAGAUGAGCUUCUGUCUGAGGAUAUUUGUGA
antisense: UCACAAAUAUCCUCAGACAGAAGCUCAUCUAUCGACUUCUUAAGUGUCUCAUCAAUAAUGUUUGGCUGUUGAAAAUGAUCAUCCAUUAUGAAGUAGAAUCGAUUCAGGAAAUUUCUGAUAUCUAUACAGCACAUUGGGUACAUCUGGGAGAAUGGUAAUACACCGGGGAAUGUGUAUUCUUCUUUCGGUCUGUCCGGAACAUACCAACUGACUUGAAUGAUUUUAUCAAAGUCUUCUUCGCUAUUGACAGGCAUAGGCAUGUAUUCAUCGGUAGACACAAUCUGUUGAAAAUCUGUGCUGAAUUUCCGUUUUAACAAAUCAGCAUAUCUAUAGAAAAGCUUAAGCACAUAAGCAUCUAAUAUGGCAACUGAAUAUCCCCAACCCUCCAUUGUUUGGAUGAACAAUGCUAUCACAUUCUUGGUUUGCAGAAUAACAUCCGGGUUAUCGAAUUCAUCCAAAGCUUUGGAGACUGCGUUGA
Turning to B2, the “% control” value is recorded as 61% in data set [1] (8 g ai/ha, two runs, three-week-old 'Lanai' tomato plant) and 58% in data set [1] (25 g ai/ha, two runs, three-week-old 'Lanai' tomato plant). In addition, the “Disease control compared with the biological standard, Serenade (AUDPC)” value in data set [3] (GS349 25 g ai/ha, Serenade ASO 85 g ai/ha) is “not significantly different”. Further, in data set [3] (non-formulated, Silwet L-77 0.1% v/v, 12 applications, GS349 25 and 50 g ai/ha), the “Control of Botrytis vs. the untreated control (AUDPC)” value is reported as “significant control”.

B3: GS2280: dsRNA trigger targeting B. cinerea Bcmcm4 (XM_024696090.1); trigger SEQ ID NO 21, RNA 33, reverse complement 45 (nucleic acid, listed as Botrytis cinerea)
sense: AAUGUCCUCGUCCGGUUUGUAAAUCUCCAAACUCCAUGCAGAUUGUACACAACAGGUCUGGAUUCAUGGAUAAGCAAGUUAUCAAGCUUCAAGAAACUCCAGAUUCCGUUCCUGCUGGUCAAACACCACAUUCCGUCUCGAUGUGUGCAUAUGAUGAGUUGGUGGAUCUGUGCAAAGCUGGUGACAGAGUUGAGAUUACUGGUAUCUUCAAAGCUAGUCCAGUUCGUGUCAAUCCUCGCCAAAGAACUCUCAAAAGCAUUUAUAAAACGUACAUCGACGUUUUACACAUUCAAAAGGUUGACAAGAAAAGAAUGGGAAUUGAUGCUUCGACCGUUGAGCAAGAAAUAUCCGAUCAGUUGACAGGCAACAUUGAAGAAACUAGAAAGGUUUCUGAAGAGGAGGAAGAAAAAAUCAGAGAAACCGCUGCAAGACCCGAUAUCUACGAACUUCUAUCUCGAUCCCUCGCACCUAGUAUUUUUGAGAUGGACGAUGUUAAGAAGGGUAUCUUGCUUCAAUUAUUUGGUGGAACUAACAAGUCUUUCGAAAAAGGAGGAAGUCCAAAAUACAGAGGAGAUAUCAAUAUUCUAUUGU
antisense: ACAAUAGAAUAUUGAUAUCUCCUCUGUAUUUUGGACUUCCUCCUUUUUCGAAAGACUUGUUAGUUCCACCAAAUAAUUGAAGCAAGAUACCCUUCUUAACAUCGUCCAUCUCAAAAAUACUAGGUGCGAGGGAUCGAGAUAGAAGUUCGUAGAUAUCGGGUCUUGCAGCGGUUUCUCUGAUUUUUUCUUCCUCCUCUUCAGAAACCUUUCUAGUUUCUUCAAUGUUGCCUGUCAACUGAUCGGAUAUUUCUUGCUCAACGGUCGAAGCAUCAAUUCCCAUUCUUUUCUUGUCAACCUUUUGAAUGUGUAAAACGUCGAUGUACGUUUUAUAAAUGCUUUUGAGAGUUCUUUGGCGAGGAUUGACACGAACUGGACUAGCUUUGAAGAUACCAGUAAUCUCAACUCUGUCACCAGCUUUGCACAGAUCCACCAACUCAUCAUAUGCACACAUCGAGACGGAAUGUGGUGUUUGACCAGCAGGAACGGAAUCUGGAGUUUCUUGAAGCUUGAUAACUUGCUUAUCCAUGAAUCCAGACCUGUUGUGUACAAUCUGCAUGGAGUUUGGAGAUUUACAAACCGGACGAGGACAUU
B3: the entries for the “% control” value in data set [1] (setting [4]) and in data set [1] (setting [5]) were 0% and 36%, respectively. Also, the “Disease state compared to treatment with the chemical standard (AUDPC)” value in data set [2] is given as “no significant difference”.
